According to US20040197858A1:

How the values were obtained:
[1] = target: purified α-thrombin derived from plasma (human) (UniProt P00734); assay: cell-based or functional assay
[2] = target: purified recombinant α-thrombin (human) (UniProt P00734); assay: cell-based or functional assay

Inhibition by ATIII: Secondary reaction constant [1]: 0.65 µM⁻¹ min⁻¹
Inhibition by ATIII: Secondary reaction constant [2]: 0.57 µM⁻¹ min⁻¹
Substance: antithrombin III
